± gives the standard deviation of the averaged measurements.
Test system: Saccharomyces cerevisiae
Experiment: protein stability index of tFT-peptide fusion (C-terminal peptide) (PSI (0-1 scale)); higher = more stable (slower turnover)
Details: genetic background: wild type; temperature: 30 C
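Note: PSI is a weighted mean of sequencing reads over stability bins, variants kept only with over 10 reads, mCherry proximal and sfGFP distal, peptide attached via GGGS linker.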

In order of falling protein stability index:
1. LYRPFTAVPPSI  0.816 ± 0.082
2. LYIRHPPSAPLP  0.808 ± 0.13
3. MDHSGYWDISCG  0.801 ± 0.099
4. MRIMERWVMGGG  0.795 ± 0.16
5. LVSPLARLGLMI  0.787 ± 0.05
6. MVRWGLGRVYGC  0.786 ± 0.1
7. MIGWQADSINKI  0.783 ± 0.022
8. LWCDPVLVLELR  0.776 ± 0.072
9. NFMTEGYFWRGE  0.767 ± 0.0087
10. LWCWVGGALCGG  0.742 ± 0.17
11. MIASGGGGEAAY  0.742 ± 0.081
12. MDIVIGSQTEAN  0.7365 ± 0.0036
13. NDQWKKENRGKK  0.737 ± 0.013
14. NEQGTIIKRYKK  0.737 ± 0.045
15. NFPEATPSNYKV  0.737 ± 0.015
16. MVRNCPYSLSFL  0.734 ± 0.07
17. LVRGGHRLSFRL  0.732 ± 0.015
18. LYPRPSRFPPLL  0.732 ± 0.087
19. LVLVRPGSVSPE  0.731 ± 0.018
20. LYTSPLPAAFQL  0.726 ± 0.038
21. LTSSGLSFSAVL  0.7249 ± 0.0027
22. MGGGGGLCGMWA  0.723 ± 0.021
23. NESSYGNEKNLG  0.723 ± 0.021
24. NGGGMPDRVVSI  0.722 ± 0.024
25. LVPTQGDFVVLL  0.721 ± 0.053
26. LVGHENIVVRRA  0.72 ± 0.011
27. LVGSSYGRTDML  0.715 ± 0.016
28. MGHLFIPSQSQS  0.715 ± 0.048
29. LVCLFRGCGLRD  0.714 ± 0.0084
30. MGKNDSITPELA  0.712 ± 0.029
31. LVLLPSASPLLL  0.71 ± 0.044
32. LYICNYFKFKKR  0.7096 ± 0.0069
33. MGAGGGLCGMWA  0.705 ± 0.054
34. NGDPRVHTAVAR  0.704 ± 0.054
35. LVSPPTPPPFPP  0.702 ± 0.059
36. LYTISAGEDELN  0.699 ± 0.018
37. NIKKNQRKEASK  0.698 ± 0.039
38. MNRKEREKKRIK  0.697 ± 0.023
39. MSLLCPSPPFPT  0.695 ± 0.068
40. LVSGASHWPSYT  0.694 ± 0.014
41. MLRSGDFSSPPN  0.694 ± 0.042
42. NIHRKLIKNERV  0.694 ± 0.046
43. LVGFGGGGDGVV  0.693 ± 0.032
44. MQNDKCWVCNQR  0.693 ± 0.029
45. LWVGGVGRVRGV  0.69144 ± 0.00047
46. MITQVIKRRKRK  0.688 ± 0.041
47. NALLHPRSHLAF  0.686 ± 0.033
48. LVFSTLGSCFDG  0.685 ± 0.0099
49. MISIKNEKKKYT  0.685 ± 0.069
50. LVGQVKYMIKEQ  0.684 ± 0.028
51. MAEAVVLDPDMV  0.6831 ± 0.0055
52. MNVPRQLISRFV  0.683 ± 0.064
53. LWQGGRAFWQPV  0.679 ± 0.046
54. NGQVAGVGNVAW  0.678 ± 0.015
55. LTYLLFPSSLQA  0.677 ± 0.04
56. NIKKKKKETKNN  0.676 ± 0.024
57. LVLYPFPPLHST  0.6749 ± 0.0053
58. LTSLIPPLPFLF  0.669 ± 0.032
59. LVAYSPRFLHSP  0.669 ± 0.038
60. NFFTLTRCTLFI  0.66684 ± 0.00029
61. LVFGRGCGWLSG  0.664 ± 0.0071
62. LYGASRCLVARS  0.664 ± 0.0093
63. NALFDLAVMCLD  0.664 ± 0.028
64. NESCRNREPGHV  0.664 ± 0.1
65. LYKEQRNNCGKI  0.662 ± 0.021
66. MRIKSMLHHSKV  0.66213 ± 0.00021
67. NFYKKLSNKMGQ  0.662 ± 0.039
68. LWVGVVGRVRGV  0.6609 ± 0.0062
69. LVGGGDRPGLGR  0.66 ± 0.0079
70. MVSSIESHIVLY  0.66 ± 0.0078
71. MSWSVSDIADDS  0.657 ± 0.0075
72. MERAGTAEGGGA  0.655 ± 0.008
73. NICLPLAHRTPG  0.655 ± 0.017
74. LVRCGLGASVVV  0.651 ± 0.041
75. MCCSVGGLFFFF  0.649 ± 0.04
76. NCSPLCLRVASS  0.647 ± 0.029
77. LVSSSPLPFSPI  0.646 ± 0.079
78. LYYSEKRIKNVN  0.643 ± 0.077
79. LVLDCPISEVLL  0.6403 ± 0.0055
80. LWAGGVAVAVSR  0.638 ± 0.045
81. MCVSSSAGVRQE  0.638 ± 0.054
82. LVFRPVPVIFGL  0.635 ± 0.017
83. LWGIAGSGVLVG  0.635 ± 0.0069
84. MTSSYLCWDVIG  0.632 ± 0.071
85. MHGVSSGSSLVN  0.63 ± 0.038
86. NGSAYEGRDYAN  0.626 ± 0.02
87. MKRIRKTKIKAR  0.624 ± 0.074
88. NDGKTKRVKKRR  0.619 ± 0.065
89. MPHLARVREVVH  0.6178 ± 0.0026
90. MCFLSCCSFRFC  0.6162 ± 0.0044
91. MKRQQENNAPGR  0.616 ± 0.018
92. NFATLFSLCCLY  0.611 ± 0.011
93. LVYLASGMYRFV  0.607 ± 0.02
94. MKLWSDALNVVR  0.607 ± 0.12
95. LVCRYLGLRCSD  0.597 ± 0.035
96. LVFCPCQSVVSL  0.59 ± 0.043
97. MDGRVMAETCRA  0.585 ± 0.038
98. MYPFKYGFASWV  0.583 ± 0.016
99. LYLCFDVVKDLG  0.582 ± 0.015
100. MLGHKIILHTYI  0.54735 ± 0.00019
101. MGVGCFCCLFVG  0.541 ± 0.011

From the supplement of paper PMC10724198
